Test results reported in US9439886B2, “Methods for producing crosslinked flavonoid hydrogels” (Agency for Science, Technology and Research, priority 2009, dated 2016).

Legend:
[1] = Gelation time of HA-EGCG hydrogels (vial tilting); format: physicochemical; conditions: pH 7.4, no exogenous H2O2, HA-EGCG 17.5 mg/ml
Procedure: Preparation of HA-EGCG solution: For all experiments described below, HA-EGCG stock solution was prepared by dissolving the conjugates in distilled water at 25 mg/ml at room temperature using a magnetic stirrer. Dissolution took about 25 min and the pH of the solution was 2.5. Then the pH was brought to 6 using 2 M NaOH before diluting with sodium phosphate buffer (final ionic strength: 0.15 M) to the desired concentration and pH, depending on the gelation condition.
Formation of HA-EGCG hydrogels through air autoxidation: To form HA-EGCG hydrogel by air autoxidation, HA-EGCG solution was diluted to 17.5 mg/ml by adding sodium phosphate buffer with pH between 6.0 to 8. To determine the gelation time, glass vials containing 0.25 ml of HA-EGCG were tilted frequently at 90 degrees for 5 sec, the time at which no obvious flowing motion could be observed was recorded as the gelation time.
Acceleration of HA-EGCG hydrogel formation through air autoxidation by adding catalase: Stock solution of catalase was prepared by dissolving the enzyme in distilled water at 22.5 kU/ml. […] The gelation time was determined as described above.
Formation of HA-EGCG hydrogel by HRP-mediated crosslinking reaction: HRP stock solution was prepared in water at 6.25 U/ml. […] The gelation time was determined as described above.

[2] = H2O2 production by HA-EGCG (PeroXOquant peroxide assay); format: physicochemical; conditions: HA-EGCG 10 mg/ml; pH 7.4; over 35 min; increased with time
Procedure: Measurement of H2O2 Production by HA-EGCG: The amount of H2O2 produced by HA-EGCG was determined using the PeroXOquant Quantitative Peroxide Assay Kits from Pierce. In order to determine the amount of H2O2 produced during the dissolution process, a sample of the dissolved conjugates was diluted 20-fold with distilled water, 20 μl of which was added to the well of a 96-wellplate follow by the addition of 200 μl working reagent prepared according to manufacturer's protocol. The HA-EGCG solution was then diluted to 10 mg/ml with phosphate buffer. The final ionic strength of the mixture was 0.15 M and pH was 7.4. For the next 35 min, 20 μl of the HA-EGCG solution was drawn out every 5 min and diluted 10-fold with distilled water. 20 μl of the diluted sample was then added to a well of a 96-wellplate followed by 200 μl of working reagents. After the last sample was collected and the working reagent added, the plate was incubated for another 1 h before reading the absorbance at 595 nm. The amount of H2O2 produced by HA-EGCG was determined by comparing to a set of H2O2 standards.

hyaluronic acid-epigallocatechin gallate [HA-EGCG]
gelation time ([1]; HRP 0 unit/ml): 50 min | gelation time ([1]; HRP 0.125 unit/ml): 9 min | amount of H2O2 generated during air-autoxidation [2]: micromolar range
